From the RNAGym collection of RNA variant scans (doi:10.1093/molbev/msab373)

B1: Azoarcus group I ribozyme (parent)
chain: GUGCCUUGCGCCGGGAAACCACGCAAGGGAUGGUGUCAAAUUCGGCGAAACCUAAGCGCCCGCCCGGGCGUAUGGCAACGCCGAGCCAAGCUUCGGCGCCUGCGCCGAUGAAGGUGUAGAGACUAGACGGCACCCACCUAAGGCAAACGCUAUGGUGAAGGCAUAGUCCAGGGAGUGGCGAAAGUCACACAAACCGG

Variants of: B1
Experiment: reverse-splicing fitness (ratio to wild type); higher = more active; in vitro selection; Mg2+ level not given
In short: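 An in vitro group I ribozyme library with randomized positions was T7-transcribed and gel-purified. In triplicate, 10 pmol RNA in EPPS pH 7.5 was reacted with 50 pmoles of a 30-nt RNA substrate for 1 h at 37 °C across several added MgCl2 levels (1–48 mM), then stopped with EDTA. Products were reverse transcribed from a substrate-complementary primer, PCR-amplified and sequenced (HiSeq 4000). Fitness is a variant's read proportion after selection over that before, normalised to wild type.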

Row | Variant | reverse-splicing fitness
1 | C82A A111U A120G A145U C150A | 0.00949
2 | C82A A111U A120G A145U C150U | 0.0134
3 | C82A A111U A120G A145U C150G | 0.00799
4 | C82A A111U A120G A145U C150U C169U U176G | 0.00524
5 | C82A A111U A120G A145U C150U C169U U176A | 0.0207
6 | C82A A111U A120G A145U C150U C169U U176C | 0.0148
7 | C82A A111U A120G A145C C150A C169U U176C | 0.0122
8 | C82A A111U A120G A145C C150A C169U U176G | 0.0059
9 | C82A A111U A120G A145C C150A C169U U176A | 0.0189
10 | C82A A111U A120G | 0.0152
11 | C82A A111U A120U | 0.0228
12 | C82A A111U A120G C150A C169U | 0.00869
13 | C82A A111U A120G C150A C169G | 0.0102
14 | C82A A111U A120G C150A C169A | 0.0108
15 | C82A A111U A120G C150G C169U | 0.00851
16 | C82A A111U A120G C150G C169A | 0.00926
17 | C82A A111U A120G C150G C169G | 0.00782
18 | C82A A111U A120C C150A C169A | 0.0122
19 | C82A A111U A120C C150A C169G | 0.0103
20 | C82A A111U A120C C150A C169U | 0.0129
21 | C82A A111U A120G C150G C169G U176G | 0.00446

Row | Variant | reverse-splicing fitness
22 | C82A A111U A120G C150G C169G U176A | 0.00798
23 | C82A A111U A120G C150G C169G U176C | 0.0044
24 | C82A A111U A120G A145U C150A C169A U176C | 0.0119
25 | C82A A111U A120G A145U C150A C169A U176A | 0.0146
26 | C82A A111U A120G A145U C150A C169A U176G | 0.00486
27 | C82A A111U A120G A145U C169A U176G | 0.00477
28 | C82A A111U A120G A145U C169A U176C | 0.0107
29 | C82A A111U A120G A145U C169A U176A | 0.012
30 | C82A A111U A120G C150U C169G U176C | 0.0205
31 | C82A A111U A120G C150U C169G U176G | 0.00517
32 | C82A A111U A120G C150U C169G U176A | 0.0175
33 | C82A A111U A120G A145C C169A U176C | 0.00818
34 | C82A A111U A120G A145C C169A U176A | 0.0141
35 | C82A A111U A120G A145C C169A U176G | 0.0048
36 | C82A A111U A120G C150A C169A U176A | 0.0214
37 | C82A A111U A120G C150A C169A U176G | 0.00665
38 | C82A A111U A120G C150A C169A U176C | 0.0237
39 | C82A A111U A120G A145G U176G | 0.00714
40 | C82A A111U A120G A145G U176C | 0.0211
41 | C82A A111U A120G A145G U176A | 0.0122
42 | C82A A111U A120G C169A U176A | 0.0188

Row | Variant | reverse-splicing fitness
43 | C82A A111U A120G C169A U176C | 0.0218
44 | C82A A111U A120G C169A U176G | 0.00506
45 | C82A A111U A120U A145C | 0.0205
46 | C82A A111U A120C C150A C169A U176G | 0.0108
47 | C82A A111U A120C C150A C169A U176A | 0.0227
48 | C82A A111U A120C C150A C169A U176C | 0.0233
49 | C82A A111U A120G A145U C150G U176G | 0.00424
50 | C82A A111U A120G A145U C150G U176A | 0.00602
51 | C82A A111U A120G A145U C150G U176C | 0.00834
52 | C82A A111U A120C C169U | 0.0143
53 | C82A A111U A120C C169G | 0.00957
54 | C82A A111U A120C C169A | 0.00982
55 | C82A A111U A120C A145U C169G U176A | 0.0204
56 | C82A A111U A120C A145U C169G U176G | 0.00642
57 | C82A A111U A120C A145U C169G U176C | 0.0253
58 | C82A A111U A120C A145U C169U U176C | 0.0156
59 | C82A A111U A120C A145U C169U U176A | 0.0151
60 | C82A A111U A120C A145U C169U U176G | 0.00555
61 | C82A A111U A120G A145C C150G U176A | 0.00504
62 | C82A A111U A120G A145C C150G U176C | 0.00759
63 | C82A A111U A120G A145C C150G U176G | 0.00318

Row | Variant | reverse-splicing fitness
64 | C82A A111U A120G A145G C150U C169A U176G | 0.00668
65 | C82A A111U A120G A145G C150U C169A U176A | 0.0144
66 | C82A A111U A120G A145G C150U C169A U176C | 0.0165
67 | C82A A111U A120G A145G C150U C169U | 0.0104
68 | C82A A111U A120G A145G C150U C169A | 0.0106
69 | C82A A111U A120G A145G C150U C169G | 0.0105
70 | C82A A111U A120G A145U C150G C169A U176C | 0.00995
71 | C82A A111U A120G A145U C150G C169A U176A | 0.0086
72 | C82A A111U A120G A145U C150G C169A U176G | 0.00552
73 | C82A A111U A120G A145G C169A U176C | 0.0259
74 | C82A A111U A120G A145G C169A U176A | 0.0222
75 | C82A A111U A120G A145G C169A U176G | 0.00503
76 | C82A A111U A120G A145U C150A C169U U176G | 0.00491
77 | C82A A111U A120G A145U C150A C169U U176A | 0.0193
78 | C82A A111U A120G A145U C150A C169U U176C | 0.0164
79 | C82A A111U A120G C150G U176C | 0.00922
80 | C82A A111U A120G C150G U176G | 0.00319
81 | C82A A111U A120G C150G U176A | 0.00663
82 | C82A A111U A120C C169A U176G | 0.00734
83 | C82A A111U A120C C169A U176C | 0.0277
84 | C82A A111U A120C C169A U176A | 0.0222
